Source: publication PMC7883444

Target: HRD1 (HMG-CoA reductase degradation protein 1, synoviolin) (UniProt Q86TM6)
Assay: anti-Myc co-IP, anti-Flag blot
Conditions: reference: WT Flag-PFKP; sites S386

binding against the reference: stronger
Substance: PFKP (platelet isoform of phosphofructokinase) (from UniProt Q01813) Flag-PFKP S386A
